% Inhibition in D1.3 Competition ELISA and % Inhibition in CEA Competition ELISA data for 1 substance are collected here from patent US20140065670A1.

The target of assay [1] is lysozyme (antigen) (UniProt P00698). Briefly: competitive ELISA on lysozyme, competitor anti-lysozyme Fab antibody fragment; bsctDb as culture supernatant.
In assay [2] the target is CEA (carcinoembryonic antigen) (UniProt P06731). Nature of the assay: competitive ELISA on CEA, competitor anti-CEA monoclonal antibody; bsctDb as culture supernatant.

As to “D1.3-A5B7 bispecific single chain tetravalent diabody (bispecific antibody)”, in assay [1], the % Inhibition in D1.3 Competition ELISA came to 100%. The substance further registered a % Inhibition in CEA Competition ELISA in assay [2] of 100%.
